# Values of other authors as cited in article PMC7080216.
# Assays:
# [1] = target: matriptase (Homo sapiens) (UniProt Q9Y5Y6)
# [2] = target: cathepsin G (Homo sapiens) (UniProt P08311)
# UniProt P08311, sequence (P08311 21-243): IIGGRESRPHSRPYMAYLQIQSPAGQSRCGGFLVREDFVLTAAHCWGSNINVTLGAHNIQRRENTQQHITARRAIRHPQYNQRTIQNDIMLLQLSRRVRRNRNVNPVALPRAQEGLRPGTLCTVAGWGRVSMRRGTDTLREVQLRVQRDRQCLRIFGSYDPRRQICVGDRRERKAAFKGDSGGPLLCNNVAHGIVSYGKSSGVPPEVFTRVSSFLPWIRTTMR
# UniProt Q9Y5Y6, sequence (Q9Y5Y6 whole entry): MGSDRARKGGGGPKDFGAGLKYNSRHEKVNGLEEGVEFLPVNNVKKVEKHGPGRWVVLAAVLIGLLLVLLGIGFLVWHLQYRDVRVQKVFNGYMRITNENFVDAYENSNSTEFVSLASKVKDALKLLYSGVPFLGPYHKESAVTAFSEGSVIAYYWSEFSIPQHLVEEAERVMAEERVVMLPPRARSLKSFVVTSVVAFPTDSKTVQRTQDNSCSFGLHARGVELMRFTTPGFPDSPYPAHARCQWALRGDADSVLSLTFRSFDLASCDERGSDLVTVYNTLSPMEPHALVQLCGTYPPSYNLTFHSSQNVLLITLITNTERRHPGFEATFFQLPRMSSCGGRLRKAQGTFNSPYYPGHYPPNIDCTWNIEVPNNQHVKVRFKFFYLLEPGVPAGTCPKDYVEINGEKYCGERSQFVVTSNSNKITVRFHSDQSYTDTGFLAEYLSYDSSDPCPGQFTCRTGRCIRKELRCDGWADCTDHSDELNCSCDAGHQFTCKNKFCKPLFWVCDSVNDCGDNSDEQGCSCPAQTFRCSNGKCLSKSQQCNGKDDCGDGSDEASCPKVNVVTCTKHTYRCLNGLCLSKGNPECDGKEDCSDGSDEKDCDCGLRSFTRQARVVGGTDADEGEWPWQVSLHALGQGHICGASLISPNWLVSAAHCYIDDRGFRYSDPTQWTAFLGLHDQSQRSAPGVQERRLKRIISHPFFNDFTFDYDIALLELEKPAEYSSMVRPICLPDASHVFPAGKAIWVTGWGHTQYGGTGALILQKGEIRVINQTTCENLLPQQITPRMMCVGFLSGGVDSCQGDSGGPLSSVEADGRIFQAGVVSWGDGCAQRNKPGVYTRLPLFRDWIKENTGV
substance,measurement,setting,value
SFTI-1 (from UniProt Q4GWU5),Ki,[1],0.001 µM
same,Ki,[2],0.57 µM
